The values that follow come from paper PMC3799444.

Assay in all cases: EMSA
On the technique in general: A gel shift assay detects complexes by their altered migration in electrophoresis.

One data set concerns the target T1, Polλ Q243R (Homo sapiens, UniProt Q9UGP5 1-575, Q243R).
T1 sequence: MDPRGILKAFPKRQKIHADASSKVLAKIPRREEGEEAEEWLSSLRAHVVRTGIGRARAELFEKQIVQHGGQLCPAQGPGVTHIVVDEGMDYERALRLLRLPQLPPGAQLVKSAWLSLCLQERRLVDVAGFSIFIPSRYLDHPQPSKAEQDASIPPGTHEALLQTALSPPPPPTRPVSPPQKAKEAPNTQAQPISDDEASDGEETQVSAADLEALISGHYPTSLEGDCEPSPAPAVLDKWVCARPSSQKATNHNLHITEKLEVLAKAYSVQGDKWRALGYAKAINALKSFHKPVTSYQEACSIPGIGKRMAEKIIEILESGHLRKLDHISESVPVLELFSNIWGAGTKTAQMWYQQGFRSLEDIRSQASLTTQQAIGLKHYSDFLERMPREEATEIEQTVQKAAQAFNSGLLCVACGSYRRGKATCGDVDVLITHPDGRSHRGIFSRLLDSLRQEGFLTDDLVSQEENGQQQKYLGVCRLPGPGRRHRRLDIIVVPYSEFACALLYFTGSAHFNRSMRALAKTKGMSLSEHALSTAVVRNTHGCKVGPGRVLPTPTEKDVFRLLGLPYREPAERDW

The next data set addresses T2, Polλ W239Y (Homo sapiens, UniProt Q9UGP5 1-575, W239Y).
T2 sequence: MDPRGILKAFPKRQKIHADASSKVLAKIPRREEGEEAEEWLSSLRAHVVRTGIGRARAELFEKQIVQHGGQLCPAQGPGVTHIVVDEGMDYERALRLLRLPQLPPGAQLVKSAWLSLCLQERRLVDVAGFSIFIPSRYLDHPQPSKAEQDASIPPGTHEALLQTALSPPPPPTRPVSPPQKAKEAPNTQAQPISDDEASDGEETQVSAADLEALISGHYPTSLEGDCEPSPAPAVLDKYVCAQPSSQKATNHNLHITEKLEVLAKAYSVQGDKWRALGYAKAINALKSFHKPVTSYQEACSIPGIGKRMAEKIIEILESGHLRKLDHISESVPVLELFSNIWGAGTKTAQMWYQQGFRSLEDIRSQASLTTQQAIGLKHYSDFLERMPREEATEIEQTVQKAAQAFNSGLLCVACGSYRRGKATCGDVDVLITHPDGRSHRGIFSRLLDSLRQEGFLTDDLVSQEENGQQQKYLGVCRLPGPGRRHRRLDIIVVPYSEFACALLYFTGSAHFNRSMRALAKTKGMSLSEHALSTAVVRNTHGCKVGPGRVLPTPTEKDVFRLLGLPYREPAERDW

The next data set addresses Polµ WT (Homo sapiens, UniProt Q9NP87).

Chain of Polµ WT (Q9NP87 whole entry): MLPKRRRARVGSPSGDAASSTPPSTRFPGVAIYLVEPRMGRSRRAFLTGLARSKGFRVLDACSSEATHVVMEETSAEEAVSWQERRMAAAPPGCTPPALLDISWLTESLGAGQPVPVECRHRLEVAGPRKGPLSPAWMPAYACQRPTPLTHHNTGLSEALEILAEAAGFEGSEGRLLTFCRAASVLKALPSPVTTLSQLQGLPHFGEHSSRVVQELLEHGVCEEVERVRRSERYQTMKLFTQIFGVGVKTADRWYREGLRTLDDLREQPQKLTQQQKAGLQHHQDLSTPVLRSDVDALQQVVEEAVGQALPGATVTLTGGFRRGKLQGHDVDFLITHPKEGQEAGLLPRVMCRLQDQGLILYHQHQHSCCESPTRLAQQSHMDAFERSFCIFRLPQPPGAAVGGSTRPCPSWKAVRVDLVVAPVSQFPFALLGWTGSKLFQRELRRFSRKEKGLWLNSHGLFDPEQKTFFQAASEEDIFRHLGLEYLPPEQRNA

B1: 5 nt gap FP-P/FP-T5/FP-D (dsDNA)
DNA 1: GGCCACGCAATGTTGACGTTTTTCGACAAGACCTCAGTAT
DNA 2: GGCAGCTTGGATCTTGTCGAAAAACGTCAACATTCGCCTAGGCTTCGGCAGCATATACTGAGGTCTTGTCGAAAAACGTCAACATTGCGTGGCC
DNA 3: GCCGAAGCCTAGGCGAATGTTGACGTTTTTCGACAAGATCCAAGCTGCC
modifications: 5'-phosphate on FT-D
On to B1, for which the binding result with Polλ Q243R and with Polλ W239Y was “binds” each time.

B2: 1 nt gap Sp1C/T13C/DG1-P (dsDNA)
DNA 1: GATCACAGTGAGTAC
DNA 2: AGAAGTGTATCTCGTACTCACTGTGATC
DNA 3: AGATACACTTCT
modifications: 5'-phosphate on DG1-P
B2: the binding result in the data set with Polµ WT is reported as “binds”.
